Results: patent US20240174727A1, “LONG-ACTING NATRIURETIC PEPTIDES AND USES THEREOF” (Eli Lilly and Company, priority 2022, published 2024)
Residue numbers refer to the chain shown, from its start. Numbered stars: 1 amine (or outer) side, 2 acyl side, 3 side chain; on linkers, the order of the positions; unused ones are H or OH. Bridge positions count the residues as written; N and C are the ends. Square brackets hold non-standard residues; d marks the D form. * marks the point of attachment. thioacetal = thioacetal linkage between two cysteines (intrachain bond at the bracketed Cys); C20 diacid = O=C(O)CCCCCCCCCCCCCCCCCCC(=O)*; γGlu = O=C(O)[C@H](CCC(=O)[*:2])N[*:1]; Orn = NCCC[C@H](N)C(=O)O; Dap = NC[C@H](N)C(=O)O; βAla = NCCC(=O)O

T1: human NPRA (human, UniProt P16066 33-1061)
T1 sequence (looked up): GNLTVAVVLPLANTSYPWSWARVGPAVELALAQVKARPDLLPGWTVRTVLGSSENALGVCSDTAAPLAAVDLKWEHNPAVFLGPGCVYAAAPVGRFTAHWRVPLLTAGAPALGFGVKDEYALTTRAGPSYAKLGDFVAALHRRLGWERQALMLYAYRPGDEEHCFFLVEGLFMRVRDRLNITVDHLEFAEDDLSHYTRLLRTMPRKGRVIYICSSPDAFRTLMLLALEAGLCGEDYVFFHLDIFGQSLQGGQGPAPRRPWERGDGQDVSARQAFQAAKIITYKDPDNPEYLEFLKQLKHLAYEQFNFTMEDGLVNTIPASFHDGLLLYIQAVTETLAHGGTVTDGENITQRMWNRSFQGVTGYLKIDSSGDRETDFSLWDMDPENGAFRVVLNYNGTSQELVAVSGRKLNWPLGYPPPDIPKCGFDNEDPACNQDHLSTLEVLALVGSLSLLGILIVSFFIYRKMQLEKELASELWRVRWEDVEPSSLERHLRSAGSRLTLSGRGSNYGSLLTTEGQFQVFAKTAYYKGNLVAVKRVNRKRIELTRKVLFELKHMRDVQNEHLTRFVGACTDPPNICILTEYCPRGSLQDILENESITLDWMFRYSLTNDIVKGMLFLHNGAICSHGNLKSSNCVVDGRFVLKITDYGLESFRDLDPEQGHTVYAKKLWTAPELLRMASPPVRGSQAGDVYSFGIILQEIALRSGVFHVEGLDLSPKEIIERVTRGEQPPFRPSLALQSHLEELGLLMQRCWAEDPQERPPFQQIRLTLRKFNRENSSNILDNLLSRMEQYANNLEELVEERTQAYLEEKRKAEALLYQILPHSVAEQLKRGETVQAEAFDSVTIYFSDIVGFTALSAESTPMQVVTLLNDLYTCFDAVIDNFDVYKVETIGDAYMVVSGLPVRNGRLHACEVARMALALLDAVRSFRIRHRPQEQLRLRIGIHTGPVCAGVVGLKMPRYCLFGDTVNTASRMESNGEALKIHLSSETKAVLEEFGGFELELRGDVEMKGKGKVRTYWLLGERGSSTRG

T2: rat NPRA (rat, UniProt P18910 29-1057)
T2 sequence (looked up): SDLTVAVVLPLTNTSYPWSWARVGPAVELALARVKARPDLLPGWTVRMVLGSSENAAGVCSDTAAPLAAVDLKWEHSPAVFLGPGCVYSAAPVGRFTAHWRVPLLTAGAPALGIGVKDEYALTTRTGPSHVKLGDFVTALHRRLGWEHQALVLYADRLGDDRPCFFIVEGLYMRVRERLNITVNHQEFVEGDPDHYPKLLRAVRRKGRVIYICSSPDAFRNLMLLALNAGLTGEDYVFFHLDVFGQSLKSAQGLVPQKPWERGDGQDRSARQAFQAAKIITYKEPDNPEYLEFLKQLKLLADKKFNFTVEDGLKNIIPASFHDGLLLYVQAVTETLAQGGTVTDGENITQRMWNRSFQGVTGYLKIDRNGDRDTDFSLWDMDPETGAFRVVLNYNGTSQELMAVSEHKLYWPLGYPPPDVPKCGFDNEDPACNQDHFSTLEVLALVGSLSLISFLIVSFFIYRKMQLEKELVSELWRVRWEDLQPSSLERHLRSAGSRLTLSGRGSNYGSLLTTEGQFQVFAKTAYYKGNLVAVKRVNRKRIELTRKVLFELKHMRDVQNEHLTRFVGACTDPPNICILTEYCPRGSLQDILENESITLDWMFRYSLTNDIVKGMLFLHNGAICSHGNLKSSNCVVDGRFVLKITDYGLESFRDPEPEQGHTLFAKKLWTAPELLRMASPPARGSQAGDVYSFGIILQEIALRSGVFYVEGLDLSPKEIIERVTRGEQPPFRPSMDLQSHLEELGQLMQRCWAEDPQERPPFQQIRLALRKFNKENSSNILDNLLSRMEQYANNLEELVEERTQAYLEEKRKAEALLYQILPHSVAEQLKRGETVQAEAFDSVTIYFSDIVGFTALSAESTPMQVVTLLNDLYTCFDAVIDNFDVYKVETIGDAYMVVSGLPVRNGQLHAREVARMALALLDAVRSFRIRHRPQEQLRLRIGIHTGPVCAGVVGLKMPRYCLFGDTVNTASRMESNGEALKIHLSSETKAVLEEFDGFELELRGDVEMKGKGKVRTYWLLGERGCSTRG

B1: HOOC-(CH2)18-CO-(γGlu)-EKEKEKGEKPRSS[CFGKRIDRIGHQSGLGC]PSFRHGSGSPSSGAPPPSG-NH2 (peptide)
peptide: {C20 diacid-γGlu}-EKEKEKGEKPRSSCFGKRIDRIGHQSGLGCPSFRHGSGSPSSGAPPPSG-NH2
modifications: bridge 14-30 via thioacetal
B2: HOOC-(CH2)18-CO-(γGlu)-EKEKEKGEKPRSS[CFGKRIDRIGHQSGLGC]PSFRHGSPSSGAPPPS-NH2 (peptide)
peptide: {C20 diacid-γGlu}-EKEKEKGEKPRSSCFGKRIDRIGHQSGLGCPSFRHGSPSSGAPPPS-NH2
modifications: bridge 14-30 via thioacetal
B3: HOOC-(CH2)18-CO-(γGlu)-EKEKEKG-(AEEA)6-EKPRSS[CFGKRIDRIGHYSGLGC]PSFRHSGSPSSGAPPPSG-NH2 (peptide)
peptide: EKPRSSCFGKRIDRIGHYSGLGCPSFRHSGSPSSGAPPPSG
modifications: N-terminus acylated with HOOC-(CH2)18-CO-(γGlu)-; (AEEA)6 after EKEKEKG; thioacetal linkage between the two bracketed Cys; C-terminal amide
B4: HOOC-(CH2)18-CO-(γGlu)-EKEKEKG-PEG24-EKPRSS[CFGKRIDRIGHQSGLGC]PSFRHSGSPSSGAPPPSG-NH2 (peptide)
peptide: B3 peptide with Y18Q
modifications: N-terminus acylated with HOOC-(CH2)18-CO-(γGlu)-; PEG24 after EKEKEKG; thioacetal linkage between the two bracketed Cys; C-terminal amide
B5: HOOC-(CH2)18-CO-(γGlu)-EKEKEKG-PEG24-EKPRSS[CFGKRIDRIGHYSGLGC]PSFRHSGSPSSGAPPPSG-NH2 (peptide)
peptide: B3 peptide
modifications: N-terminus acylated with HOOC-(CH2)18-CO-(γGlu)-; PEG24 after EKEKEKG; thioacetal linkage between the two bracketed Cys; C-terminal amide
B6: HOOC-(CH2)18-CO-(γGlu)-EKEKEKG-PEG24-EKPRSS[CFGKGIDRIGHQSGLGC]PSFRHSGSPSSGAPPPSG-NH2 (peptide)
peptide: B3 peptide with R11G, Y18Q
modifications: N-terminus acylated with HOOC-(CH2)18-CO-(γGlu)-; PEG24 after EKEKEKG; thioacetal linkage between the two bracketed Cys; C-terminal amide
B7: HOOC-(CH2)18-CO-(γGlu)-EKEKEKG-(AEEA)8-EKPRSS[CFGKRIDRIGHYSGLGC]PSFRHSGSPSSGAPPPSG-NH2 (peptide)
peptide: B3 peptide
modifications: N-terminus acylated with HOOC-(CH2)18-CO-(γGlu)-; (AEEA)8 after EKEKEKG; thioacetal linkage between the two bracketed Cys; C-terminal amide
B8: HOOC-(CH2)18-CO-(γGlu)-EKEKEKG-(AEEA)6-EK-βAla-RSS[CFGKRIDRIGHQSGLGC]PSFRHGSPSSGAPPPS-NH2 (peptide)
peptide: EKXRSSCFGKRIDRIGHQSGLGCPSFRHGSPSSGAPPPS
modifications: N-terminus acylated with HOOC-(CH2)18-CO-(γGlu)-; (AEEA)6 after EKEKEKG; βAla; thioacetal linkage between the two bracketed Cys; C-terminal amide
B9: HOOC-(CH2)18-CO-(γGlu)-EKEKEKG-PEG24-EKPRSS[CFGKRIDRIGHYSGLGC]PSFRHGSPSSGAPPPS-NH2 (peptide)
peptide: B8 peptide with X3P, Q18Y
modifications: N-terminus acylated with HOOC-(CH2)18-CO-(γGlu)-; PEG24 after EKEKEKG; thioacetal linkage between the two bracketed Cys; C-terminal amide
B10: HOOC-(CH2)18-CO-(γGlu)-EKEKEKG-(AEEA)8-EK-βAla-RSS[CFGKRIDRIGHQSGLGC]PSFRHGSPSSGAPPPS-NH2 (peptide)
peptide: B8 peptide
modifications: N-terminus acylated with HOOC-(CH2)18-CO-(γGlu)-; (AEEA)8 after EKEKEKG; βAla; thioacetal linkage between the two bracketed Cys; C-terminal amide
B11: HOOC-(CH2)18-CO-(γGlu)-EKEKEKG-(AEEA)8-EKPRSS[CFGKRIDRIGHYSGLGC]PSFRHGSPSSGAPPPS-NH2 (peptide)
peptide: B8 peptide with X3P, Q18Y
modifications: N-terminus acylated with HOOC-(CH2)18-CO-(γGlu)-; (AEEA)8 after EKEKEKG; thioacetal linkage between the two bracketed Cys; C-terminal amide
B12: HOOC-(CH2)18-CO-(γGlu)-EKEKEKG-(AEEA)6-EKPRSS[CFGKRIDRIGHYSGLGC]PSFRHGSPSSGAPPPS-NH2 (peptide)
peptide: B8 peptide with X3P, Q18Y
modifications: N-terminus acylated with HOOC-(CH2)18-CO-(γGlu)-; (AEEA)6 after EKEKEKG; thioacetal linkage between the two bracketed Cys; C-terminal amide
B13: HOOC-(CH2)18-CO-(γGlu)-EKEKEKGEKPRSS[CFGG-Dap-IDRIGHYSGLGC]PSFRHGSPSSGAPPPS-NH2 (peptide)
peptide: {C20 diacid-γGlu}-EKEKEKGEKPRSSCFGG[Dap]IDRIGHYSGLGCPSFRHGSPSSGAPPPS-NH2
modifications: bridge 14-30 via thioacetal
B14: HOOC-(CH2)18-CO-(γGlu)-EKEKEKGEKPRSS[CFGKRIDRIG-Orn-YSGLGC]PSFRHGSPSSGAPPPS-NH2 (peptide)
peptide: {C20 diacid-γGlu}-EKEKEKGEKPRSSCFGKRIDRIG[Orn]YSGLGCPSFRHGSPSSGAPPPS-NH2
modifications: bridge 14-30 via thioacetal
B15: HOOC-(CH2)18-CO-(γGlu)-EKEKEKG-PEG24-S-4Pal-RRSS[CFGKRIDRIGHYSGLGC]PSFRHGGKSSGAPPPS-NH2 (peptide)
peptide: SXRRSSCFGKRIDRIGHYSGLGCPSFRHGGKSSGAPPPS
modifications: N-terminus acylated with HOOC-(CH2)18-CO-(γGlu)-; PEG24 after EKEKEKG; 4Pal; thioacetal linkage between the two bracketed Cys; C-terminal amide
B16: HOOC-(CH2)18-CO-(γGlu)-EKEKEKG-PEG24-S-4Pal-RRSS[CFGKRIDRIGHYSGLGC]PSFRHGSPSSGAPPPS-NH2 (peptide)
peptide: B15 peptide with G30S, K31P
modifications: N-terminus acylated with HOOC-(CH2)18-CO-(γGlu)-; PEG24 after EKEKEKG; 4Pal; thioacetal linkage between the two bracketed Cys; C-terminal amide
B17: HOOC-(CH2)18-CO-(γGlu)-EKEKEKG-(AEEA)6-S-4Pal-RRSS[CFGKRIDRIGHYSGLGC]PSFRHGSPSSGAPPPS-NH2 (peptide)
peptide: B15 peptide with G30S, K31P
modifications: N-terminus acylated with HOOC-(CH2)18-CO-(γGlu)-; (AEEA)6 after EKEKEKG; 4Pal; thioacetal linkage between the two bracketed Cys; C-terminal amide
B18: HOOC-(CH2)18-CO-(γGlu)-EKEKEKG-(AEEA)6-S-4Pal-RRSS[CFGKRIDRIGHYSGLGC]PSFRHGSGSPSSGAPPPSG-NH2 (peptide)
peptide: SXRRSSCFGKRIDRIGHYSGLGCPSFRHGSGSPSSGAPPPSG
modifications: N-terminus acylated with HOOC-(CH2)18-CO-(γGlu)-; (AEEA)6 after EKEKEKG; 4Pal; thioacetal linkage between the two bracketed Cys; C-terminal amide
B19: HOOC-(CH2)18-CO-(γGlu)-EKEKEKGEK-βAla-RSS[CFGKRIDRIGHYSGLGC]PSFRHGSPSSGAPPPS-NH2 (peptide)
peptide: {C20 diacid}-[γGlu]EKEKEKGEK[βAla]RSSCFGKRIDRIGHYSGLGCPSFRHGSPSSGAPPPS-NH2
modifications: bridge 15-31 via thioacetal

Assays:
human NPRA = target: T1, human NPRA; test: cell-based or functional assay
rat NPRA = target: T2, rat NPRA; test: cell-based or functional assay

Row | Binder | cGMP Assay (EC50, pM) w/BSA, hNPRA (human NPRA) [pM] | cGMP Assay (EC50, pM) w/Casein, hNPRA (human NPRA) [pM] | cGMP Assay (EC50, pM) w/BSA, rNPRA (rat NPRA) [pM] | cGMP Assay (EC50, pM) w/Casein, rNPRA (rat NPRA) [pM]
1 | B1 | 37600 | 392 | 816000 | 2160
2 | B2 | 41500 | 703 | 341000 | 2020
3 | B3 | 8970 | 745 | 205000 | 3830
4 | B4 | 5300 | 704 | 260000 | 9390
5 | B5 | 3980 | 656 | 74300 | 4510
6 | B6 | 302000 | 38700 | 1.45e+06 | 580000
7 | B7 | 6370 | 1090 | 88500 | 3760
8 | B8 | 12800 | 493 | 623000 | 17900
9 | B9 | 5170 | 736 | 80200 | 4850
10 | B10 | 10000 | 542 | 696000 | 25400
11 | B11 | 9550 | 902 | 147000 | 3990
12 | B12 | 6380 | 490 | 150000 | 3770
13 | B13 | 1.41e+06 | 5350 | 3.8e+06 | 71700
14 | B14 | 104000 | 497 | 6.52e+06 | 186000
15 | B15 | 2210 | 580 | 89100 | 5320
16 | B16 | 2830 | 726 | 100000 | 5650
17 | B17 | 6020 | 621 | 149000 | 6360
18 | B18 | 9170 | 922 | 200000 | 6040
19 | B19 | 23700 | 566 | 498000 | 2010
